# Measured values from the supplement of paper PMC11316812.
# ± gives the standard deviation of the averaged measurements.
# Columns and labels:
# hTERT-HMEC = assay: percentage of EdU-negative (G0-arrested) nuclei per well, 72 h; higher = more G0 arrest; details: reference: sequence is the full UniProt precursor, the tested protein was the secreted form or ectodomain
# MCF7 = assay: as above; details: reference: sequence is the full UniProt precursor, the tested protein was the secreted form or ectodomain
# [1] = protein concentration 0.03125 µM
# [2] = protein concentration 0.3125 µM
# [3] = protein concentration 0.0225 µM
# [4] = protein concentration 0.01775 µM
# [5] = protein concentration 0.1775 µM
# [6] = protein concentration 0.0231575 µM
# [7] = protein concentration 0.231575 µM
# [8] = protein concentration 0.0143975 µM
# [9] = protein concentration 0.0290625 µM
# [10] = protein concentration 0.143975 µM
# [11] = protein concentration 0.290625 µM
# 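Further: secreted proteins added to cultured cells, EdU pulse at the end, nuclei found by Hoechst imaging, EdU status from nuclear versus surrounding ring intensity ratio, PBS as neutral control.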
sequence,measurement,setting,value
MIPGGLSEAKPATPEIQEIVDKVKPQLEEKTNETYGKLEAVQYKTQVVAGTNYYIKVRAGDNKYMHLKVFKSLPGQNEDLVLTGYQVDKNKDDELTGF,percentage of EdU-negative,hTERT-HMEC; [1],5.99 ± 0.58%
same,percentage of EdU-negative,hTERT-HMEC; [2],5.5 ± 0.67%
same,percentage of EdU-negative,MCF7; [1],26.6 ± 0.69%
same,percentage of EdU-negative,MCF7; [2],23.6 ± 2.5%
MGTSLLCWMALCLLGADHADTGVSQNPRHKITKRGQNVTFRCDPISEHNRLYWYRQTLGQGPEFLTYFQNEAQLEKSRLLSDRFSAERPKGSFSTLEIQRTEQGDSAMYLCASSL,percentage of EdU-negative,hTERT-HMEC; [3],5.02 ± 0.49%
same,percentage of EdU-negative,hTERT-HMEC; protein concentration 0.225 µM,6.26 ± 1.2%
same,percentage of EdU-negative,MCF7; [3],27 ± 1.4%
same,percentage of EdU-negative,MCF7; protein concentration 0.225 µM,26.8 ± 1.4%
MVAGSDAGRALGVLSVVCLLHCFGFISCFSQQIYGVVYGNVTFHVPSNVPLKEVLWKKQKDKVAELENSEFRAFSSFKNRVYLDTVSGSLTIYNLTSSDEDEYEMESPNITDTMKFFLYVLESLPSPTLTCALTNGSIEVQCMIPEHYNSHRGLIMYSWDCPMEQCKRNSTSIYFKMENDLPQKIQCTLSNPLFNTTSSIILTTCIPSSGHSRHRYALIPIPLAVITTCIVLYMNGILKCDRKPDRTNSN,percentage of EdU-negative,hTERT-HMEC; [3],5.39 ± 0.14%
same,percentage of EdU-negative,hTERT-HMEC; protein concentration 0.225 µM,5.59 ± 0.33%
same,percentage of EdU-negative,MCF7; [3],27.3 ± 0.7%
same,percentage of EdU-negative,MCF7; protein concentration 0.225 µM,26.7 ± 1.6%
MIRTLLLSTLVAGALSCGDPTYPPYVTRVVGGEEARPNSWPWQVSLQYSSNGKWYHTCGGSLIANSWVLTAAHCISSSRTYRVGLGRHNLYVAESGSLAVSVSKIVVHKDWNSNQISKGNDIALLKLANPVSLTDKIQLACLPPAGTILPNNYPCYVTGWGRLQTNGAVPDVLQQGRLLVVDYATCSSSAWWGSSVKTSMICAGGDGVISSCNGDSGGPLNCQASDGRWQVHGIVSFGSRLGCNYYHKPSVFTRVSNYIDWINSVIANN,percentage of EdU-negative,hTERT-HMEC; [4],6.83 ± 1.7%
same,percentage of EdU-negative,hTERT-HMEC; [5],24.7 ± 3.9%
same,percentage of EdU-negative,MCF7; [4],23.79 ± 0.23%
same,percentage of EdU-negative,MCF7; [5],29.6 ± 2.2%
MYREWVVVNVFMMLYVQLVQGSSNEHGPVKRSSQSTLERSEQQIRAASSLEELLRITHSEDWKLWRCRLRLKSFTSMDSRSASHRSTRFAATFYDIETLKVIDEEWQRTQCSPRETCVEVASELGKSTNTFFKPPCVNVFRCGGCCNEESLICMNTSTSYISKQLFEISVPLTSVPELVPVKVANHTGCKCLPTAPRHPYSIIRRSIQIPEEDRCSHSKKLCPIDMLWDSNKCKCVLQEENPLAGTEDHSHLQEPALCGPHMMFDEDRCECVCKTPCPKDLIQHPKNCSCFECKESLETCCQKHKLFHPDTCSCEDRCPFHTRPCASGKTACAKHCRFPKEKRAAQGPHSRKNP,percentage of EdU-negative,hTERT-HMEC; [6],4.71 ± 0.18%
same,percentage of EdU-negative,hTERT-HMEC; [7],7.16 ± 1.6%
same,percentage of EdU-negative,MCF7; [6],27.2 ± 0.62%
same,percentage of EdU-negative,MCF7; [7],28.82 ± 0.28%
MSALGAVIALLLWGQLFAVDSGNDVTDIADDGCPKPPEIAHGYVEHSVRYQCKNYYKLRTEGDGVYTLNDKKQWINKAVGDKLPECEADDGCPKPPEIAHGYVEHSVRYQCKNYYKLRTEGDGVYTLNNEKQWINKAVGDKLPECEAVCGKPKNPANPVQRILGGHLDAKGSFPWQAKMVSHHNLTTGATLINEQWLLTTAKNLFLNHSENATAKDIAPTLTLYVGKKQLVEIEKVVLHPNYSQVDIGLIKLKQKVSVNERVMPICLPSKDYAEVGRVGYVSGWGRNANFKFTDHLKYVMLPVADQDQCIRHYEGSTVPEKKTPKSPVGVQPILNEHTFCAGMSKYQEDTCYGDAGSAFAVHDLEEDTWYATGILSFDKSCAVAEYGVYVKVTSIQDWVQKTIAEN,percentage of EdU-negative,hTERT-HMEC; [1],4.46 ± 0.32%
same,percentage of EdU-negative,hTERT-HMEC; [2],5.96 ± 1.1%
same,percentage of EdU-negative,MCF7; [1],23.8 ± 3%
same,percentage of EdU-negative,MCF7; [2],23.1 ± 0.73%
MEALMARGALTGPLRALCLLGCLLSHAAAAPSPIIKFPGDVAPKTDKELAVQYLNTFYGCPKESCNLFVLKDTLKKMQKFFGLPQTGDLDQNTIETMRKPRCGNPDVANYNFFPRKPKWDKNQITYRIIGYTPDLDPETVDDAFARAFQVWSDVTPLRFSRIHDGEADIMINFGRWEHGDGYPFDGKDGLLAHAFAPGTGVGGDSHFDDDELWTLGEGQVVRVKYGNADGEYCKFPFLFNGKEYNSCTDTGRSDGFLWCSTTYNFEKDGKYGFCPHEALFTMGGNAEGQPCKFPFRFQGTSYDSCTTEGRTDGYRWCGTTEDYDRDKKYGFCPETAMSTVGGNSEGAPCVFPFTFLGNKYESCTSAGRSDGKMWCATTANYDDDRKWGFCPDQGYSLFLVAAHEFGHAMGLEHSQDPGALMAPIYTYTKNFRLSQDDIKGIQELYGASPDIDLGTGPTPTLGPVTPEICKQDIVFDGIAQIRGEIFFFKDRFIWRTVTPRDKPMGPLLVATFWPELPEKIDAVYEAPQEEKAVFFAGNEYWIYSASTLERGYPKPLTSLGLPPDVQRVDAAFNWSKNKKTYIFAGDKFWRYNEVKKKMDPGFPKLIADAWNAIPDNLDAVVDLQGGGHSYFFKGAYYLKLENQSLKSVKFGSIKSDWLGC,percentage of EdU-negative,hTERT-HMEC; [8],4.84 ± 0.7%
same,percentage of EdU-negative,hTERT-HMEC; [9],5.59 ± 1.1%
same,percentage of EdU-negative,hTERT-HMEC; [10],9.87 ± 1.2%
same,percentage of EdU-negative,hTERT-HMEC; [11],4.97 ± 0.54%
same,percentage of EdU-negative,MCF7; [8],23.9 ± 0.91%
same,percentage of EdU-negative,MCF7; [9],26.7 ± 1.5%
same,percentage of EdU-negative,MCF7; [10],25.25 ± 0.19%
same,percentage of EdU-negative,MCF7; [11],27.8 ± 0.84%
